These results are taken from publication doi:10.1101/844829.

The target of experiment [1] is Rhodamine-labeled GMPCPP-stabilized microtubules from porcine tubulin (10 % rhodamine-labeled tubulin) (porcine) (UniProt P02550). The experiment is described as follows: single-molecule TIRF microscopy.
The target in experiment [2] is GMPCPP-stabilized microtubules polymerized from porcine tubulin (porcine) (UniProt P02550). The experiment is described as follows: optical tweezers with 2D force clamp.

On to “Full-length budding yeast Kip3 (Kip3-eGFP-His6) (from UniProt P53086 1-805) (natural protein)”, for which, in experiment [1], the mean end residence time at the microtubule plus end (no load) was 80 s and the mean run time on the microtubule (no load) came out at 150 s. Further, in experiment [2], the end residence time at the microtubule plus end (sideward load 0.5 pN) stood at 33 s, the end residence time extrapolated to zero load from the high-assisting-load data was 17 s and the mean end residence time at the microtubule plus end (without load) was determined as 64 s.
